{"source": "paper PMC4118823", "about": "“Structural and biophysical analysis of interactions between cod and human uracil-DNA N-glycosylase (UNG) and UNG inhibitor (Ugi)” (Acta Crystallographica Section D: Biological Crystallography, 2014)", "binders": {"B1": {"name": "uracil-DNA N-glycosylase inhibitor (Ugi) (natural protein)", "chain": "MTNLSDIIEKETGKQLVIQESILMLPEEVEEVIGNKPESDILVHTAYDESTDENVMLLTSDAPEYKPWALVIQDSNGENKIKML", "notes": "expressed from a recombinant pRSETb plasmid provided by T. Géoui; source: E. coli BL21 (DE3) pLysS, purified (heating to 95°C, Q-Sepharose, Superdex 75)"}}, "key": {"[1]": {"molecular_target": "T1, Uracil-DNA N-glycosylase from Atlantic cod (Atlantic cod, UniProt Q9I983 82-301)", "T1 construct": "Catalytic domain of uracil-DNA N-glycosylase (UNG) from Atlantic cod; Lanes et al., 2002). numbers count on: hUNG numbering; also called cUNG; cod UNG; source: recombinantly produced in E. coli; expression and purification as described previously (Assefa et al., 2012)", "T1 sequence (Q9I983 entry or part of it)": "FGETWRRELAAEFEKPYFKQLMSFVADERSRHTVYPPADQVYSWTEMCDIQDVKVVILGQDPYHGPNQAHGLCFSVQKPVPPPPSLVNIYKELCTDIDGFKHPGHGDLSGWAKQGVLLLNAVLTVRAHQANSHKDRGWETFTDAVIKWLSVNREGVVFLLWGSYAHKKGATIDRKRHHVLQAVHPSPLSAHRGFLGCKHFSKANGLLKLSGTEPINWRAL", "experiment": "ITC; Ugi (267-667 µM, syringe) injected into UNG (20-50 µM, cell); 25°C; 20 mM sodium phosphate pH 7.5, 200 mM sodium chloride; single-site binding model", "conditions": "both partners purified"}, "[2]": {"molecular_target": "T2, human uracil-DNA N-glycosylase (human, UniProt P13051-2 1-304)", "T2 construct": "Human uracil-DNA N-glycosylase (UNG), recombinant; also called hUNG; human UNG; source: expression and purification as described previously (Assefa et al., 2012)", "T2 sequence (P13051 94-313)": "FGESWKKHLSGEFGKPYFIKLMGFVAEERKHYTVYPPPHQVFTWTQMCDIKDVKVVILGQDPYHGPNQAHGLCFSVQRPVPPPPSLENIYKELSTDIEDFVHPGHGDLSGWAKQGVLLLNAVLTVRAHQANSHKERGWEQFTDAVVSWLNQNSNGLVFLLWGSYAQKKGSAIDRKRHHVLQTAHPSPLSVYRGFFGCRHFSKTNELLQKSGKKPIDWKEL", "experiment": "ITC; Ugi (267-667 µM, syringe) injected into UNG (20-50 µM, cell); 25°C; 20 mM sodium phosphate pH 7.5, 200 mM sodium chloride; single-site binding model", "conditions": "both partners purified"}}}
{"binder": "B1", "values": [{"measurement": "Ka", "setting": "[1]", "value": "3.25e+07", "unit": "M⁻¹"}, {"measurement": "Kd", "setting": "[1]", "value": 31, "unit": "nM"}, {"measurement": "dH", "setting": "[1]", "value": -6, "unit": "kcal/mol"}, {"measurement": "stoichiometry N", "setting": "[1]", "value": 0.994}, {"measurement": "Ka", "setting": "[2]", "value": "1.5e+06", "unit": "M⁻¹"}, {"measurement": "Kd", "setting": "[2]", "value": 685, "unit": "nM"}, {"measurement": "dH", "setting": "[2]", "value": -2.25, "unit": "kcal/mol"}, {"measurement": "stoichiometry N", "setting": "[2]", "value": 0.921}]}
